According to the supplement of paper PMC12042874:
± gives the uncertainty stated by the source.

Test: amyloid nucleation score (Sup35N fusion, yeast selection) (log enrichment); library NNK2; higher = more nucleation; inactive = no reads after selection
Outline: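 Output and input plasmid inserts were sequenced by Illumina after psi-negative yeast carrying Sup35N fused to peptides of 20 random codons had been induced 24 hours with 100 μM copper sulfate and grown 7 days at 30°C on medium lacking adenine and uracil. The nucleation score is the DiMSum log enrichment of output over input reads, centred on the mode score of non-aggregating sequences. Sequences with under 100 input reads were excluded.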

Substance | amyloid nucleation score
VCTNFWELMVWAQQLLFCKL | inactive
HCSCVKNSTSTDIEE | inactive
YGIHTFSRYGVIWSCVSV | -0.64 ± 0.49
VQDAFVYFNAELRWYDILGQ | -0.201 ± 0.37
LPRMGSEWFVCWLCSCVATW | 0.718 ± 0.57
CFMDFQWHMRSHG | -0.265 ± 0.3
KVTARPFRQC | 4.997 ± 0.045
ALIGLWVGKPFPGGMLVLFM | 0.24 ± 0.3
ILADINL | inactive
SRYACVRLICQVWPLWVGSG | 0.875 ± 0.43
TPFAHSGSWCNSERLVPRLV | 0.364 ± 0.33
ICRNGLSL | 0.098 ± 0.26
AEAWGVFYHWHDT | -0.493 ± 0.53
TVYPCMYGGLGHRERHLSMS | 5.06 ± 0.063
IRCVGRVVFCCNFS | 9.965 ± 0.078
FDALRIFVPVPYRRWSSR | 1.52 ± 0.28
CNFEHFFYKVFRFLQWTVYE | -0.153 ± 1.1
ALCKMQLITSSYQGPATEDL | -0.168 ± 0.76
FNIERCLLISGMLCSPAVEL | -0.602 ± 1.1
LMGLQMSLPWSNEIVRVIPD | -0.663 ± 0.49
LRGLVMRCAFIVKGLGLCEG | 0.979 ± 0.22
MFAFMNFRRTIVVYEVWGSY | inactive

Substance | amyloid nucleation score
EYSPCPSCT | 3.966 ± 0.037
YVEVLSKVAWASDCSRIEYA | -0.342 ± 1.1
QMTLVHK | 1.67 ± 0.39
FTNCEYNVDISCVSGLSYSI | inactive
YTNTKKVLLVSVNVPRFLPV | 1.99 ± 0.17
VFSCYSVQHRRLSWMSCD | -0.385 ± 0.41
LRKNSLTCSSKKPEKAVTFC | -1.42 ± 1
VKFAGWTCSL | -0.314 ± 0.62
EGCHVGNLDCLPSETATVSV | 0.143 ± 0.79
IYPDKSFMALFPMVIDFYTQ | -2.19 ± 0.62
CEFMCLQGSRDRIDFLHRSE | -1 ± 0.34
VDMTGCLTGVDVTSLRNIPL | 0.931 ± 0.38
WRYDSWFKRKHCMLLYICQG | 0.003 ± 0.43
ILKSRSLVRFHFFSIGASCA | 0.427 ± 0.41
FSACFGCFVLAKSNHY | 0.955 ± 0.25
MVHHGGCAWMSSACTCNVHC | 0.313 ± 0.27
KVKSLYLSMVQGWMFYV | -0.425 ± 0.24
HAYSWNNRPVGVVRSRSRLF | -0.597 ± 0.34
LWLVSRRNACFA | -0.408 ± 1
ILSARRCFAQMVFVLYQNLV | -0.171 ± 0.33
HSAMFLYTKHVSPPGSWRVL | 1.6 ± 0.13
GDMLILSENDQRYCGPVDL | 0.107 ± 0.45

Substance | amyloid nucleation score
LNSRS | -0.436 ± 0.76
DRMLCWDLGVIKNVLRTRVL | -0.354 ± 0.55
YIFGSCGVYLFPPPAKF | 6.88 ± 0.078
LNKNYWGL | -0.921 ± 0.39
GICTWNFV | inactive
RGAAGILFTSLIFMSVYALI | -0.104 ± 0.49
CVICHYHLCLRQCIWSG | 5.373 ± 0.033
MPPGCRMIFALIVVVIQFNF | 0.04 ± 0.76
NDPGYLTTYI | -0.418 ± 0.27
VNDCYIILISIQALKGPICF | 0.465 ± 0.8
YDERTWGTECMCTSCSCADK | 1.24 ± 0.28
VIDGNKDGSMTFPVQGDALR | 1.2 ± 0.48
WQTEFIYSQVSTVGYKRLEG | 2.38 ± 0.089
ISGAL | 0.203 ± 0.45
FIFIMGIFERLH | -1.54 ± 1.1
DKKLIFRWAITVMIRIPART | 1.65 ± 0.48
IITIYLLAELNSVSVTSTSI | 5.138 ± 0.03
CFLTTYNRNYNLMRVFSIFR | 1.43 ± 0.21
WGDIDF | -0.385 ± 0.64
GSRVALLNMGGK | -0.512 ± 0.79
WAGRCDHK | 0.227 ± 0.25
YCGFVFPAWGDLLTNGSPAA | 0.092 ± 0.29

Substance | amyloid nucleation score
SRYIM | -1.06 ± 1.1
LHSVMMLGGRIRPHPQVHSL | 0.471 ± 0.26
RLYKRLR | -1.19 ± 1.1
QGRLSPY | inactive
FEGLWQTFTMSLQGNLKYIF | -0.4 ± 0.74
GMVNIYDLCYMLLY | -1.21 ± 0.31
RPGYNQMDFDWRLLIDVFDG | -0.133 ± 1
CFGIILVQGYMHA | 3.6 ± 0.052
RYAQGRRWSYRLNRCLVGRC | 1.81 ± 0.27
NRKYTILVLDLLEGSLCARE | 0.599 ± 0.42
MNKNYFSGLPGGSVCYSVEY | -0.732 ± 0.38
APNMKSNLYFPEVRLNEGSR | 0.714 ± 0.53
DDRELL | -0.32 ± 0.63
FCSFSMFRLAS | 0.606 ± 0.8
LEMFYRVPLPRCKTYLQFRC | 0.471 ± 0.62
ERFRIGTCSIRCSYILGLRR | -0.898 ± 0.54
VLMEWTLGVTHDNISDDYSD | 2.58 ± 0.082
MVLRKLTYILPTRLLGQRFL | inactive
SYFKSTSARCFSFYLCCAKT | 6.224 ± 0.05
YYRYRHLMHLIKWME | 0.216 ± 0.53
